This assay addresses mature type GnT-V. Put plainly: cell-based or functional assay.

For γ-secretase (enzyme), the GnT-V activity in culture solution, PS-1 ΔE9 cells against control cells is 4 fold; the ratio of the GnT-V activity in culture solution (extracellular) to that in the cell, PS-1 ΔE9 cells worked out at 3.5; the ratio of the GnT-V activity in culture solution (extracellular) to that in the cell, PS-1 ΔE9 cells against control cells turned out to be 3 fold; the ratio of the GnT-V activity in culture solution (extracellular) to that in the cell, control cells without high expression of variant presenilin-1 was 1.2.

Values taken from patent publication US20050148516A1.
